From PMC2897767, “Two Distinct Mechanisms for Actin Capping Protein Regulation—Steric and Allosteric Inhibition” (PLoS Biology, 2010)
Values belong to the binder of their own block, whether it stands above or below them.

Key:
Details in all cases: both partners purified
[1] = biological target: CPβΔC (chicken α1 full/β1 1–244; a deletion mutant CP lacking the β-tentacle) (chicken, UniProt P13127 1-286; P14315 1-244); assay: crystal structure; complexes formed with 1.2–2.0-fold molar excess of V-1 or peptide and purified by gel filtration; hanging-drop vapor diffusion at 20°C; molecular replacement
[2] = biological target: T1, actin capping protein (CP), chicken α1/β1, CP_full (chicken, UniProt P13127 1-286; P14315 1-277); assay: SPR; competition: GST-CA92 immobilised, perfused with 50 nM wild type CP pre-mixed with various concentrations of CARMIL peptides (CA21 up to 500 nM)
[3] = biological target: T1, actin capping protein (CP), chicken …; assay: SPR; as a1, but koff >0.1 s^-1: amount of bound CP at the steady state plotted against the concentration of CP (Michaelis-Menten plots under saturated binding conditions)
[4] = biological target: T1, actin capping protein (CP), chicken …; assay: SPR; GST-fusion protein (GST-V-1, GST-CA or GST-CD) immobilised on a CM5 chip via anti-GST antibodies (up to 200 RU), CP perfused at 20 µl/min; 20°C; 50 mM KCl, 1 mM MgCl2, 0.005% Tween-20, 10 mM imidazole pH 7.0; 1:1 fit, KD from the kinetic rate constants (steady state for several fast-dissociating mutants)
[5] = biological target: CP (β) Y64F (chicken, UniProt P13127 1-286; P14315 1-277, Y64F); assay: as above
[6] = biological target: CP (β) D67N (chicken, UniProt P13127 1-286; P14315 1-277, D67N); assay: SPR; as a1, but koff >0.1 s^-1: amount of bound CP at the steady state plotted against the concentration of CP (Michaelis-Menten plots under saturated binding conditions)
[7] = biological target: CP (β) D44N (chicken, UniProt P13127 1-286; P14315 1-277, D44N); assay: as above
[8] = biological target: CP (β) D63N (chicken, UniProt P13127 1-286; P14315 1-277, D63N); assay: as above

B2: GST-CA55 (domain or fragment)
chain: FPSVRQEKRSSGLISELPSEEGRRLEHFTKLRPKRNKKQQPTQAAVCTISILPQD
notes: CARMIL, mouse, residues 962–1016
Kd [3]: 4000 nM
koff [3]: > 0.1 s⁻¹

B3: GST-CD47 (domain or fragment)
chain: FDSLTVRTSKETDVVNFDDIASSENLLHLTANRPKMPGRRLPGRFNG
notes: CD2AP, human, residues 461–507; cloned into pGEX-6P-1
Kd [4]: 18 nM
koff [4]: 0.029 s⁻¹
kon [4]: 1.6e+06 M⁻¹ s⁻¹

B4: GST-CD43 (domain or fragment)
chain: FDSLTVRTSKETDVVNFDDIASSENLLHLTANRPKMPGRRLPG
notes: CD2AP, human, residues 461–503; cloned into pGEX-6P-1
Kd [3]: 260 nM
koff [3]: > 0.1 s⁻¹

B5: GST-CA63 (domain or fragment)
chain: FPSVRQEKRSSGLISELPSEEGRRLEHFTKLRPKRNKKQQPTQAAVCTISILPQDGEQNGLMG
notes: CARMIL, mouse, residues 962–1024
Kd [3]: 3300 nM
koff [3]: > 0.1 s⁻¹

B8: GST-CA92 (domain or fragment)
chain: FPSVRQEKRSSGLISELPSEEGRRLEHFTKLRPKRNKKQQPTQAAVCTISILPQDGEQNGLMGRVDEGVDEFFTKKVTKMDCKRSSSRSSDA
notes: CARMIL, mouse, residues 962–1053
Kd [5]: 10 nM
koff [5]: 0.0046 s⁻¹
kon [5]: 460000 M⁻¹ s⁻¹
Kd [4]: 3.3 nM
koff [4]: 0.0052 s⁻¹
kon [4]: 1.6e+06 M⁻¹ s⁻¹
Kd [6]: 4900 nM
koff [6]: > 0.1 s⁻¹
Kd [7]: 7400 nM
koff [7]: > 0.1 s⁻¹
Kd [8]: 1400 nM
koff [8]: > 0.1 s⁻¹

B9: CK23, human CKIP-1 (148–70) (peptide)
peptide: SYLAHPTRDRAKIQHSRRPPTRG
notes: CKIP-1, human, residues printed as 148–70, read as 148–170 (23 residues); also called CARMIL peptide; source: synthetic peptide, Invitrogen
binding result [1]: binds
binding result [2]: binds

B10: CA21, mouse CARMIL (residues 985–1005) (peptide)
peptide: RLEHFTKLRPKRNKKQQPTQA
notes: CARMIL, mouse, residues 985–1005; also called CARMIL peptide; source: synthetic peptide, Invitrogen
binding result [1]: binds
binding result [2]: binds

Continued, values first:

binding result [1]: binds
binding result [2]: binds
B1: CD23, human CD2AP (485–507) (peptide)
peptide: NLLHLTANRPKMPGRRLPGRFNG
notes: CD2AP, human, residues 485–507; also called CARMIL peptide; source: synthetic peptide, Invitrogen

Kd [4]: 80 nM
koff [4]: 0.019 s⁻¹
kon [4]: 230000 M⁻¹ s⁻¹
B6: GST-CA76 (domain or fragment)
chain: FPSVRQEKRSSGLISELPSEEGRRLEHFTKLRPKRNKKQQPTQAAVCTISILPQDGEQNGLMGRVDEGVDEFFTKK
notes: CARMIL, mouse, residues 962–1037

Kd [4]: 62 nM
koff [4]: 0.033 s⁻¹
kon [4]: 540000 M⁻¹ s⁻¹
B7: GST-CD44 (domain or fragment)
chain: FDSLTVRTSKETDVVNFDDIASSENLLHLTANRPKMPGRRLPGR
notes: CD2AP, human, residues 461–504; cloned into pGEX-6P-1
